The values below come from patent US20210054048A1.

The experiment has as its target alcohol dehydrogenase (ADH). The experiment can be described thus: cell-based or functional assay.

In the case of “CryS96 (αB-crystallin peptide fused with ELP S96)”, the decrease in ADH aggregation (optical density at 360 nm, 48° C., 2 h) stood at 61%.
